Assay results published in US12116387B2, “Antimicrobial peptides” (priority 2021, dated 2024).
“Also recorded” adds a separate entry of the source.

Tests used:
[1] = tested on: murine fibroblasts (L929); experiment: Cytotoxicity against L929 fibroblasts (MTT); format: cell-based; conditions: L929
Method: Mammalian cells toxicity assays. L929 mice fibroblasts (Rio de Janeiro Cell Bank) and SPCs were seeded in 96-well microtiter plates in a concentration of 1.0×10^5 cells per well, in DMEM medium, supplemented with different concentrations of tested peptides (1-600 μM). After 48 h incubation, a thiazolyl blue tetrazolium bromide (MTT) protocol was performed. Briefly, 60% of the medium was removed, and 10 μL of MTT (5 mg mL^−1) (Sigma, USA) solution was added to each well and the plate was incubated for 4 h, in 5% CO2, at 37° C. The blue formazan product generated was dissolved by the addition of 100 μL of 100% DMSO (Mallinckrodt, Germany) per well. Plates were then gently swirled for 5 min, at room temperature, to dissolve the precipitate. The absorbance was monitored at 575 nm using a microplate spectrophotometer (Bio-Tek, USA). Cytotoxicity was determined as a percentage of the maximum value after subtracting the background. The results were expressed as the percentage of each sample compared to the negative control (PBS buffer, pH 7.4) and cell culture was incubated in a lysis buffer (10 mM Tris, pH 7.4, 1 mM ethylenediamine tetraacetic acid (EDTA), and 0.1% Triton X-100).

[2] = tested on: E. coli and S. aureus strains; experiment: Systemic infection experiments, summary over all strains; conditions: 10 mg Kg^−1
Method: To determine the anti-infective activity of mast-MO in a pre-clinical mouse model, the ability of the peptide to kill pathogenic and drug-resistant E. coli and S. aureus strains was tested in a systemic sepsis infection mouse model (FIG. 5). The minimal bacterial load resulting in a lethal dose (LD100) 24 h post-intraperitoneal injection was first determined. […] Mice were infected with the LD100 of bacteria and treated 3 h post-infection with either mast-L (1 and 5 mg Kg^−1) or mast-MO (1, 5 and 10 mg Kg^−1), which were also administered intraperitoneally.
Systemic bacterial infection mouse model. […] The experiment was performed by intraperitoneal (i.p.) injection of the tested peptides to groups of 10 C57BL/6 mice. Each mouse was injected with a 0.5 mL solution of freshly prepared of peptides in PBS. The doses of peptide administered per mouse were 0, 10, 30, 50, 70 and 90 mg Kg^−1 of body weight. Animals were directly inspected for adverse effects for 6 h, and mortality was monitored for 7 days thereafter. Differences between groups were analysed using the Fisher exact test (differences were considered to be statistically significant when the P value was <0.05). Briefly, E. coli ATCC8739 and E. coli 1812446 or S. aureus ATCC 29213 and S. aureus (MRSA) ATCC33591 were plated on tryptic soy agar plus 5% sheep blood (blood agar, Himedia, India) from a frozen stock. Following 24 h of incubation of the agar plate, three isolated colonies were transferred to 1 mL of BHI. The broth culture was incubated overnight (12-16 h) at 37° C. with shaking. […] Mice were challenged with either strain of E. coli ATCC8739 and E. coli 1812446 or S. aureus ATC29213 and S. aureus (MRSA) ATCC33591 in a final volume of 200 μL of PBS by intraperitoneal injection (i.p.). The day of challenge was designated as day 1 of the experiment. Three hours after bacterial injection, mice (n=5) were treated, intraperitoneally, with different concentrations of peptides (1, 5 or 10 mg Kg^−1), LL-37, gentamicin and 10 mg Kg^−1 of imipenem or PBS for 8 days. For bacterial load evaluation, 5 mice per group were used. […]

S. aureus MRSA ATCC33591 = experiment: Systemic sepsis infection mouse model, MRSA; format: in vivo; conditions: 5 mg Kg^−1 i.p.
Method: (§1) FIG. 5A-5I pertains to a study of the anti-infective activity of mast-MO against Gram-negative and Gram-positive pathogens in a lethal sepsis infection model. In FIG. 5A mice were infected with bacteria, treated with each peptide or antibiotic and monitored for 8 days. Survival and cell counts after 24 h, respectively, are shown for E. coli ATCC8739 (2×10^4 CFU/mL inoculum) FIG. 5B and FIG. 5C, S. aureus ATCC29213 (2×10^9 CFU/mL inoculum) FIG. 5D and FIG. 5E, E. coli 1812446 (KPC-positive) (2×10^4 CFU inoculum) FIG. 5F and FIG. 5G, and S. aureus (MRSA) ATCC33591 (2×10^9 CFU inoculum) FIG. 5H and FIG. 5I. Mice were treated intraperitoneally (i.p.) with 1, 5 and 10 mg Kg^−1 of mast-L, mast-MO or 10 mg Kg^−1 of the antibiotics gentamicin and imipenem. PBS was used as a control for the untreated group of mice. Treatments were administered 3 h post-infection. Data are expressed as the mean±standard deviation. Statistical analysis was performed using Bonferroni test. […], **p<0.01, ***p<0.001 compared to the untreated control.
(§2) Systemic bacterial infection mouse model. […] Animals were humanely killed 24 h after bacterial administration.

[3] = tested on: murine macrophages monocytes (RAW 264.7); experiment: Cytotoxicity against RAW 264.7 cells (MTT); format: cell-based; conditions: RAW 264.7 (Table 2)
[4] = tested on: E. coli ATCC8739 and clinical isolate E. coli 1812446 (KPC-positive); experiment: Systemic sepsis infection mouse model, E. coli strains; format: in vivo; conditions: 5 mg Kg^−1 i.p., 3 h post-infection
Method: as §1, §2

[5] = tested on: different human and murine cell lines; experiment: Hemolysis and cytotoxicity, text summary over the cell lines of Table 2; format: cell-based; conditions: range over cell lines
Method: Once the mechanisms by which the peptide targeted bacterial cells was elucidawted, the effect of the pentapeptide motif insertion on cytotoxicity against mammalian cells was evaluated.

[6] = tested on: human embryonic kidney (HEK293) cells; experiment: Cytotoxicity against HEK293 cells; format: cell-based; conditions: HEK293
Description: The FLPII motif was chosen for the permutations to preserve the natural antimicrobial activity of mast-L and also conserve the hydrophobic content inserted in the N-terminal extremity for the initial design of mast-MO. Next, we assessed the antimicrobial (FIG. 10) and cytotoxic activities of the mast-MO analog library against HEK293 cells (FIG. 6C). These specific cell line was chosen as it derives from human embryonic kidney cells and potential antimicrobial (i.e., AMPs, antibiotics) toxicity affects the kidneys, which are responsible for clearing such molecules (34). Also measured was whether the peptides aggregated at the highest concentration tested (128 μmoL^−1) (Table 7) since the motif inserted is composed of residues with aliphatic or aromatic side chain groups that may be prone to aggregation when in proximity within the primary peptide sequence, thus altering biological activity. Minor changes to the first five residues inserted in the mast-MO primary sequence led to a pronounced decrease in cytotoxic activity (2.5 to 5-fold) compared to mast-MO (FIG. 6C).

## NLKALAALAKKIL [Mast-L]
[1]
  Cytotoxic activity, Peptide Concentration: 10 µmol/L
[2]
  Toxicity when injected systemically in the infection model: had to be euthanized; also recorded: led to toxicity
S. aureus MRSA ATCC33591
  Survival: 60%
[3]
  Cytotoxic activity, Peptide Concentration: 10 µmol/L
[4]
  Survival: 40 to 60%
[5]
  Concentration hemolytic and toxic towards human and murine cell lines: 7 to 50 µmol⁻¹
[6]
  Cytotoxic activity, Peptide Concentration: 50 µmol/L
